Test results published in the supplement of paper PMC9233669.
This sample holds only a part of the variants without activity.

Tests used:
biotinyl-Phe-oxazolone = experiment: self-aminoacylation, catalytic enhancement (BFO) (fold over background); higher = more active; k-Seq, kA / k0A0; sequences stand for … in GGGAAUGGAUCCACAUCUACGAAUUC…UUCACUGCAGACUUGACGAAGCUG
Outline: (§1)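 Mutagenized RNA pools (0.43 μM; 21-nt variable region) were treated with 2–1250 μM of each biotinyl-aminoacyl-oxazolone. Conditions were 50 μL HEPES/NaCl/KCl/MgCl2/CaCl2 buffer, 5% acetonitrile, pH 6.9–7.0, room temperature, 90 minutes. Catalytic enhancement, the median kA relative to the uncatalyzed rate, was derived from streptavidin capture, qPCR and Illumina sequencing.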

biotinyl-Ile-oxazolone = experiment: self-aminoacylation, catalytic enhancement (BIO) (fold over background); higher = more active; k-Seq, kA / k0A0; sequences stand for … in GGGAAUGGAUCCACAUCUACGAAUUC…UUCACUGCAGACUUGACGAAGCUG
Outline: as §1

biotinyl-Met-oxazolone = experiment: self-aminoacylation, catalytic enhancement (BMO) (fold over background); higher = more active; k-Seq, kA / k0A0; sequences stand for … in GGGAAUGGAUCCACAUCUACGAAUUC…UUCACUGCAGACUUGACGAAGCUG
Outline: as §1

biotinyl-Val-oxazolone = experiment: self-aminoacylation, catalytic enhancement (BVO) (fold over background); higher = more active; k-Seq, kA / k0A0; sequences stand for … in GGGAAUGGAUCCACAUCUACGAAUUC…UUCACUGCAGACUUGACGAAGCUG
Outline: as §1

biotinyl-Leu-oxazolone = experiment: self-aminoacylation, catalytic enhancement (BLO) (fold over background); higher = more active; k-Seq, kA / k0A0; sequences stand for … in GGGAAUGGAUCCACAUCUACGAAUUC…UUCACUGCAGACUUGACGAAGCUG
Outline: as §1

biotinyl-Trp-oxazolone = experiment: self-aminoacylation, catalytic enhancement (BWO) (fold over background); higher = more active; k-Seq, kA / k0A0; sequences stand for … in GGGAAUGGAUCCACAUCUACGAAUUC…UUCACUGCAGACUUGACGAAGCUG
Outline: as §1

Sequence | self-aminoacylation (biotinyl-Phe-oxazolone) | self-aminoacylation (biotinyl-Ile-oxazolone) | self-aminoacylation (biotinyl-Met-oxazolone) | self-aminoacylation (biotinyl-Val-oxazolone) | self-aminoacylation (biotinyl-Leu-oxazolone) | self-aminoacylation (biotinyl-Trp-oxazolone)
CCGCACUUCAAGGAAUCGGUC [Fam1B.1 aminoacylation ribozyme variant] | 10.7 | 1.45 | 1.37 | 1.52 | 1.44 | 10.8
AAGAUUGCUAAUAGUCGGAAG [Fam3.1 aminoacylation ribozyme variant] | 1.84 | 1.4 | 0.909 | 1.22 | 0.837 | 1.54
CAGUUUGCUAACAGUCGCAAG [Fam3.1 aminoacylation ribozyme variant] | 2 | 1.31 | 1.83 | 1.16 | 1.6 | 1.32
AUUACCCUGGUCAUCGAGUAA [Fam2.1 aminoacylation ribozyme variant] | 118 | 8.7 | 28.9 | 10.1 | 26.7 | 25.3
AUUACUCUGGUCAACGAGUGA [Fam2.1 aminoacylation ribozyme variant] | 26.9 | 3.12 | 5 | 2.76 | 5.72 | 7.22
AUUACCCUGGUCAUUGAGUGA [Fam2.1 aminoacylation ribozyme variant] | 44.1 | 4.27 | 9.01 | 4.49 | 8.58 | 10.8
AUUAACCUAGGUCAUCGGGAG [Fam2.2 aminoacylation ribozyme variant] | 1.18 | 1.14 | 0.94 | 1.14 | 1.34 | 0.979
AUUACCCUCGCCAUCGAGUGA [Fam2.1 aminoacylation ribozyme variant] | 41.1 | 3.71 | 6.67 | 3.97 | 7.31 | 8.23
AUUCACUUAGGUCAUCGGCUG [Fam2.2 aminoacylation ribozyme variant] | 4.69 | 1.46 | 1.47 | 1.65 | 1.17 | 1.45
AUUACCCUGGUCAUCGAUUGU [Fam2.1 aminoacylation ribozyme variant] | 0.73 | 0.753 | 0.73 | 0.785 | 0.736 | 0.386
AUUACCGUGGUCAUCGGGUGA [Fam2.1 aminoacylation ribozyme variant] | 105 | 7.08 | 11.7 | 8.1 | 11.9 | 17.3
AAGUCUGCUAGUAGUCGCAAG [Fam3.1 aminoacylation ribozyme variant] | 1.06 | 0.775 | 0.975 | 1.06 | 1.44 | 0.88
AUUACCCUGGGCGUCGAGUGA [Fam2.1 aminoacylation ribozyme variant] | 1.06 | 1.04 | 1.73 | 1.44 | 1.3 | 1.04
AUUCACUUAGGUCAUCGGGGG [Fam2.2 aminoacylation ribozyme variant] | 2.12 | 2.04 | 2.13 | 1.95 | 2.74 | 2.16
AUUACCCUGGUCAUGGGGUGA [Fam2.1 aminoacylation ribozyme variant] | 66.9 | 4.02 | 8.63 | 4.17 | 10.1 | 9.45
AUCCAACUAGGUCAUCGGGUG [Fam2.2 aminoacylation ribozyme variant] | 80.9 | 5.82 | 8.53 | 4.93 | 9.99 | 8.01
AUUUAACUAGGUCAUCGGGUG [Fam2.2 aminoacylation ribozyme variant] | 31.4 | 2.6 | 4.3 | 2.72 | 5.03 | 3.75
AUUCACAUAGGUCAUCGGGAG [Fam2.2 aminoacylation ribozyme variant] | 0.953 | 1 | 1.13 | 1.19 | 0.985 | 1.76
AUUACCCUGGUCACCGCGUGA [Fam2.1 aminoacylation ribozyme variant] | 98.1 | 6.07 | 14.1 | 7.05 | 16.7 | 16.7
CCAUACUUCAAGCAAUCGGUC [Fam1B.1 aminoacylation ribozyme variant] | 22.5 | 1.07 | 0.921 | 1.11 | 1.14 | 10.1
AUCAACCUGGUCAUCGAGUGA [Fam2.1 aminoacylation ribozyme variant] | 43.5 | 5.12 | 10 | 4.81 | 11.9 | 9.87
CUUCCCCUGGUCAUCGAGUGA [Fam2.1 aminoacylation ribozyme variant] | 40.1 | 3.23 | 5.92 | 3.42 | 6.32 | 7.51
